Here are results for one molecule from patent publication US4790988A, “Method and compositions for the treatment of thrombotic episodes” (University of Florida, priority 1987, dated 1988).

For this test, the system named is thrombus in the circumflex coronary artery. The test can be described thus: Electrically induced coronary thrombus model in dogs, restoration of blood flow. The class given is in vivo. Particulars: infused into a peripheral vein for 30 minutes at 10 microgram/kg/min; mongrel dogs. Here is the method:
A thrombus was introduced into the circumflex coronary artery of mongrel dogs by electrical current. Blood flow in the artery was measured by a commercially available electromagnetic flow probe. After stable blood flow for five minutes without electrical current, homogeneous recombinant human tissue plasminogen activator (Genentech) was infused into a peripheral vein for 30 minutes at a dose of 10 microgram/kg/min. In another cohort of animals, pentapeptide 6A was infused intra-arterially proximal to the occlusion at a dose of 5 micromoles/min for 20 min.

B1: tissue plasminogen activator: homogeneous recombinant human tissue plasminogen activator (Genentech) (protein, UniProt P00750 36-562, looked up)
Tissue-type plasminogen …: SYQVICRDEKTQMIYQQHQSWLRPVLRSNRVEYCWCNSGRAQCHSVPVKSCSEPRCFNGGTCQQALYFSDFVCQCPEGFAGKCCEIDTRATCYEDQGISYRGTWSTAESGAECTNWNSSALAQKPYSGRRPDAIRLGLGNHNYCRNPDRDSKPWCYVFKAGKYSSEFCSTPACSEGNSDCYFGNGSAYRGTHSLTESGASCLPWNSMILIGKVYTAQNPSAQALGLGKHNYCRNPDGDAKPWCHVLKNRRLTWEYCDVPSCSTCGLRQYSQPQFRIKGGLFADIASHPWQAAIFAKHRRSPGERFLCGGILISSCWILSAAHCFQERFPPHHLTVILGRTYRVVPGEEEQKFEVEKYIVHKEFDDDTYDNDIALLQLKSDSSRCAQESSVVRTVCLPPADLQLPDWTECELSGYGKHEALSPFYSERLKEAHVRLYPSSRCTSQHLLNRTVTDNMLCAGDTRSGGPQANLHDACQGDSGGPLVCLNDGRMTLVGIISWGLGCGQKDVPGVYTKVTNYLDWIRDNMRP
For the molecule B1, the “animals with coronary blood flow restored” value is given as 5 of 7, the duration reflow persisted was 20.0 ± 10.9 min, the “peak restored coronary blood flow (mean±SD)” value came out at 22 ± 12 mL/min and the “time to flow restoration” value amounted to 12.3 ± 9.1 min.
